The results in this text go back to paper PMC7714070, “The role of the cytoskeletal proteins MreB and FtsZ in multicellular cyanobacteria” (FEBS Open Bio, 2020).

The series deals with the molecule itself. Nature of the series: in vitro polymerisation seen by epifluorescence microscopy; Ni-NTA-purified FtsZ-His labelled with NHS-Fluorescein, in FtsZ polymerization buffer (50 mM MES, 50 mM KCl, 10 mM MgCl2, 2 mM GTP, pH 6.5), 40 min at 30 °C.

B1: Polyhistidine tagged FtsZ from Fischerella muscicola PCC 7414 (natural protein, UniProt A0A2N6JXP9 1-430, looked up)
chain: MTLDNNQGLTYKNSQSPGQSTFSLAVNSTNPFNHSGLSFGQNNDSKKIEREETRIGDIVPGRVANIKVIGVGGGGSNAVNRMIASDVSGVEFWSINTDAQALTLAAAPSRLQIGQKLTRGLGAGGNPAIGTKAAEESRDEIATALDGADLVFITAGMGGGTGTGAAPIVAEVAKEMGALTVGVVTRPFIFEGRRRISQAEQGIEGLKSRVDTLIIIPNNKLLEVIPEQTPMQEAFRYADDVLRQGVQGISDIITIPGLINVDFADVRAVMADAGSALMGIGIGSGKSRAREAAIAAISSPLLECSIEGARGVVFNITGGSDLTLHEVNAAAETIYEVVDPNANIIFGAVIDDRLQGEVRLTVIATGFTGEAPAAQQSNVTQGRVVQPPPQRRPMQQPPAPNPPTQTPEPKEKGSVLDIPDFLRKRTPPRN
modifications: labelled with NHS-Fluorescein
notes: FtsZ of Fischerella muscicola PCC 7414; also called FtsZFm-His; FtsZ-His; source: E. coli BL21 (DE3), purified (Ni-NTA)
B1: the binding result is “binds”.

B2: Polyhistidine tagged FtsZ from Anabaena sp. PCC 7120 (natural protein, UniProt P45482 1-428, looked up)
chain: MTLDNNQELTYRNSQSLGQPGFSLAVNSSNPFNHSGLNFGQNNDSKKISVENNRIGEIVPGRVANIKVIGVGGGGGNAVNRMIESDVSGVEFWSINTDAQALTLAGAPSRLQIGQKLTRGLGAGGNPAIGQKAAEESRDEIATALEGADLVFITAGMGGGTGTGAAPIVAEVAKEMGALTVGVVTRPFVFEGRRRTSQAEQGIEGLKSRVDTLIIIPNNKLLEVIPEQTPVQEAFRYADDVLRQGVQGISDIITIPGLVNVDFADVRAVMADAGSALMGIGVSSGKSRAREAAIAAISSPLLECSIEGARGVVFNITGGSDLTLHEVNAAAETIYEVVDPNANIIFGAVIDDRLQGEVRITVIATGFTGEIQAAPQQNAANARVVSAPPKRTPTQTPLTNSPAPTPEPKEKSGLDIPDFLQRRRPPKN
modifications: labelled with NHS-Fluorescein
notes: FtsZ of Anabaena sp; PCC 7120; also called FtsZAna-His; FtsZ-His; source: E. coli BL21 (DE3), purified (Ni-NTA)
On to B2, for which the binding result is “binds”.
